Common to all, as to experiment: thiol-disulfide exchange
Assay [1] concerns the target Ibα-TM (human).
In assay [2] the target is Ibα-TM (human). This is another data set of the same source.
Assay [3] deals with Ibα-TM (human). This is another data set of the same source.
The target in assay [4] is (Ibβ-TM)-SS-(Ibα-TM)-SS-(Ibβ-TM) peptide complex (human).
The target is the same in assay [5]. The source holds these as a separate data set.
Assay [6] has the same target. The source holds these as a separate data set.

Read-outs that look alike come from different tables or passages of the source.

B1: Ibβ-TM (peptide)
chain: GSGGGLCWGALAAQLALLGLGLLHALLLVLLLSRLRRLRARARARAAARLSLTDPLVAERAGTDES
With B1, the αβ2 production (% of Ibβ-TM) in the assay with Ibα-TM (human) [1] is 13.5 % of Ibβ-TM; in the assay with Ibα-TM (human) [2], 27.7 % of Ibβ-TM; in the assay with Ibα-TM (human) [3], 20.5 % of Ibβ-TM.
Regarding GSVRPGVLWDVALVAVAALGLALLAGLLNATTEALD [IX-TM], the αβ2 production with IX-TM (% of Ibβ-TM) in assay [4] was 41.2 % of Ibβ-TM; in assay [5], 32.8 % of Ibβ-TM; in assay [6], 29.4 % of Ibβ-TM.

(Values after paper PMC2563799.)
